Like-named read-outs stand apart in the source and are kept apart here.
Key:
[1] = cited from earlier work
[2] = Solubility of lysozyme by turbidimetric assay (absorbance at 600 nm); format: physicochemical
Method: Initial solubility studies were performed on the model protein lysozyme in water. Samples having known concentrations were prepared by weighing the lysozyme and adding the appropriate amount of water to get the desired concentration in mg/mL. The samples were gently inverted several times and stored at room temperature for 1 hour to overnight to allow the protein to rehydrate. Solubility limits were determined via turbidimetric assay.
The samples were then placed in a Biotek Synergy plate reader and absorbance was measured from 200 nm to 900 nm. As FIG. 1 illustrates, lysozyme has a characteristic […] at 280 nm that can be used along with Beer-Lambert's law to measure the concentration, however, for samples above 5 mg/mL, the instrument sensor becomes saturated and the readings are not useful for determining concentration. Therefore, to determine solubility limits, the absorbance at 600 nm was used to indicate the presence of aggregate or particulate in suspension. At this wavelength, far from the characteristic absorbance, any increase in absorbance is an indicator that the protein is not completely in solution. A baseline was established by measuring the absorbance of pure water or TCH solution without any lysozyme. Samples were measured in triplicate and the averages are plotted in the accompanying figures.
To determine the effect of TCH on the solubility of lysozyme, values for the solubility of lysozyme in TCH formulations as a function of water content were obtained. […] There is a characteristic peak proximate 280 nm that can be used can be used along with Beer-Lambert's law to determine concentrations, however, the spectra is near zero away from this peak.

[3] = Thermal stability of lysozyme in TCH by differential scanning calorimetry; format: physicochemical
Method: TCH solutions were prepared, water was added, and the water content was measured using Karl Fischer titration until the desired solutions were achieved. Lysozyme was weighed into the container and the appropriate amount of TCH was added to achieve a solution with a concentration of approximately 1 mg/mL. Samples were gently inverted several times and left at room temperature for one hour or overnight to allow the lysozyme to rehydrate and go into solution. Some samples were dried by evaporative drying and rehydrated prior to scanning Another sample of lysozyme in 0.1M sodium acetate buffer pH 4 was prepared for comparison.
To determine the stability of lysozyme in TCH over time, a set of samples was prepared at stable moisture contents and stored at the appropriate humidity at room temperature for a period of five weeks. These samples were prepared with a protein concentration of 10 mg/mL prior to storage. After five weeks, they were diluted to approximately 1 mg/mL and scanned using differential scanning calorimetry (DSC).
A Micro-cal VP DSC was used for determining the thermal stability of the protein. A baseline was established by scanning the TCH solution without protein at least three times until repeatability was evident. The TCH solutions used for the baseline scans are identical to the sample solutions, without protein. The baseline scans of the solutions without protein help eliminate noise resultant from variation in the sample cells. […] The concentration of lysozyme in each sample was verified prior to scanning by reading the absorbance at 280 nm on the Biotek Synergy plate reader. […]
The DSC thermal traces were fit in OriginPro with a non-two-state model that includes an output of both calorimetric enthalpy and Van't Hoff enthalpy, Hv. The calorimetric enthalpy is determined by the area under the curve and depends on the selected baseline as well as the normalized concentration. […] The number of intermediate steps in the unfolding process can be determined by taking the ratio of calorimetric enthalpy to Van't Hoff enthalpy. […]

[4] = in NaH2PO4; cited from earlier work

Row | Compound | solubility limit ([1]; 10° C.) | solubility limit ([1]; 20° C.) | water content corresponding to solubility limit ([1]; 20° C.) | solubility limit ([1]; 40° C.) | solubility limit, as water content ([1]; pure trehalose) [% water by weight] | solubility ([2]; in TCH 1:4 compositions, all water content levels tested (0.01 to 0.70 grams water per gram dry weight)) | solubility (in words) ([2]; in TCH solutions) | solubility (no indication of solubility issues up to maximum concentration tested) ([2]; in pure water) [mg/mL] | absorbance at 600 nm ([2]; lysozyme in TCH solutions, each sample measured) | degradation after storage ([3]; five weeks of storage in stable TCH solutions, moisture content and/or humidity controlled, room temperature) | thermal unfolding temperature, stored versus fresh samples ([3]; stored five weeks in TCH, DSC) | thermal unfolding temperature ([3]; versus weight percent of TCH in solution, DSC) | ratio of calorimetric to Van't Hoff enthalpies [4]
1 | OC[C@H]1O[C@H](O[C@H]2O[C@H](CO)[C@@H](O)[C@H](O)[C@H]2O)[C@H](O)[C@@H](O)[C@@H]1O [trehalose] | 42.3 % (grams trehalose per gram solution) | 46.6 % (grams trehalose per gram solution) | 53.4 % (grams water per gram solution) | 59.7 % (grams trehalose per gram solution) | 53 | – | – | – | – | – | – | – | –
2 | lysozyme | – | – | – | – | – | at least 40 mg/mL | readily soluble | ≥ 200 | below 0.05 | no sign of degradation | slightly higher unfolding temperature | increases with increasing concentrations of TCH | ~1

Source: patent publication US20170332622A1, “COMPOSITIONS AND METHODS FOR PRESERVATION AND STORAGE OF BIOLOGICAL MATERIALS” (The University of North Carolina at Charlotte, priority 2016, published 2017)
